Test results: US20250145729A1 (DENALI THERAPEUTICS, published 2025)
Numbering of substitutions follows the chain as printed. Names may count otherwise.

T1: circularly permuted human TfR apical domain (human)
T1 construct: TfR residues 326-379 stand N-terminal to 194-296, loop 297-325 deleted; also called huTfR Apical Domain
T1 chain: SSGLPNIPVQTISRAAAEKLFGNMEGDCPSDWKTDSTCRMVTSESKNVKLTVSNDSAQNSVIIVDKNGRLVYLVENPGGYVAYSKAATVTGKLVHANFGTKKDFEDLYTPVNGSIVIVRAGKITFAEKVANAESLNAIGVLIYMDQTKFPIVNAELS

T2: circularly permuted cyno TfR apical domain (cynomolgus monkey)
T2 construct: same design as the human construct; also called cyTfR Apical Domain; cynomolgus TfR apical domain
T2 chain: T1 chain with R39K, S45N, N47S, R69G, Y108D, T109S, N153K, E155D

B1: 6.5.11.1 (Fc fusion)
chain: APEAAGGPSVFLFPPKPKDTLMISRTPEVTCVVVDVSHEDPEVKFNWYVDGVEVHNAKTKPREEQYNSTYRVVSVLTVLHQDWLNGKEYKCKVSNKALGAPIEKTISKAKGQPREPQVYTLPPSRDELTKNQVSLTCLVKGFYPSDIAVNWFSNGQIENNYKTTPPVLDSDGSFFLYSKLTVDKSRWQQGNLFACEVMHEALHNHYTYKLLSLSPGK
notes: P329G+LALA
B2: 42.2.3-1H (Fc fusion)
chain: B1 chain with N150E, S153Y, N154G, G155N, Q156A, I157K, N159T
notes: P329G+LALA
B3: 42.8.112 (Fc fusion)
chain: B1 chain with N150E, S153Y, N154G, I157K, E158L
notes: bivalent; P329G+LALA
B4: 42.8.139 (Fc fusion)
chain: B1 chain with N150E, S153Y, N154G, G155D, Q156S, I157K
notes: bivalent; P329G+LALA
B5: 42.8.57 (Fc fusion)
chain: B1 chain with N150E, N154D, G155A, Q156S, I157K, N159S
notes: bivalent; P329G+LALA
B6: 42.8.94 (Fc fusion)
chain: B1 chain with N150E, N154E, G155A, Q156S, I157K, E158L
notes: bivalent; P329G+LALA
B7: 42.8.159 (Fc fusion)
chain: B1 chain with N150E, S153Y, N154D, G155A, I157K, N159S
notes: bivalent; P329G+LALA
B8: 42.8.128 (Fc fusion)
chain: B1 chain with N150E, S153Y, N154G, G155A, Q156S, I157K, N159T
notes: bivalent; P329G+LALA
B9: 42.8.95 (Fc fusion)
chain: B1 chain with N150E, N154E, G155A, Q156S, I157K, E158L, N159T
notes: bivalent; P329G+LALA
B10: 6.5.11.7.122 (Fc fusion)
chain: B1 chain with N150F, I157R
notes: bivalent; P329G+LALA
B11: 42.8.137 (Fc fusion)
chain: B1 chain with N150E, S153Y, N154G, G155D, I157K, E158L, N159T
notes: bivalent; P329G+LALA
B12: 42.8.167 (Fc fusion)
chain: B1 chain with N150E, S153Y, N154D, G155A, Q156S, I157K, E158L, N159T
notes: bivalent; P329G+LALA
B13: 42.8.173 (Fc fusion)
chain: B1 chain with N150E, S153Y, N154D, G155D, I157K, E158L, N159T
notes: bivalent; P329G+LALA
B14: 42.8.182 (Fc fusion)
chain: B1 chain with N150E, S153Y, N154E, I157K, N159T
notes: bivalent; P329G+LALA
B15: 42.8.16 (Fc fusion)
chain: B1 chain with N150E, N154G, G155A, I157K, E158L
notes: bivalent; P329G+LALA
B16: 42.8.175 (Fc fusion)
chain: B1 chain with N150E, S153Y, N154D, G155D, Q156S, I157K
notes: bivalent; P329G+LALA
B17: 42.8.77 (Fc fusion)
chain: B1 chain with N150E, N154E, I157K, E158L, N159T
notes: bivalent; P329G+LALA
B18: 42.8.166 (Fc fusion)
chain: B1 chain with N150E, S153Y, N154D, G155A, Q156S, I157K, E158L
notes: bivalent; P329G+LALA
B19: 42.8.64 (Fc fusion)
chain: B1 chain with N150E, N154D, G155D, I157K, E158L
notes: bivalent; P329G+LALA
B20: 42.8.56 (Fc fusion)
chain: B1 chain with N150E, N154D, G155A, Q156S, I157K, N159T
notes: bivalent; P329G+LALA
B21: 42.8.96 (Fc fusion)
chain: B1 chain with N150E, N154E, G155A, Q156S, I157K, E158L, N159S
notes: bivalent; P329G+LALA
B22: 42.8.151 (Fc fusion)
chain: B1 chain with N150E, S153Y, N154D, Q156S, I157K
notes: bivalent; P329G+LALA
B23: 42.8.109 (Fc fusion)
chain: B1 chain with N150E, S153Y, N154G, I157K
notes: bivalent; P329G+LALA
B24: 42.8.114 (Fc fusion)
chain: B1 chain with N150E, S153Y, N154G, I157K, E158L, N159S
notes: bivalent; P329G+LALA
B25: 42.8.87 (Fc fusion)
chain: B1 chain with N150E, N154E, G155A, I157K, N159S
notes: bivalent; P329G+LALA
B26: 42.8.113 (Fc fusion)
chain: B1 chain with N150E, S153Y, N154G, I157K, E158L, N159T
notes: bivalent; P329G+LALA
B27: 42.8.150 (Fc fusion)
chain: B1 chain with N150E, S153Y, N154D, I157K, E158L, N159S
notes: bivalent; P329G+LALA
B28: 42.8.55 (Fc fusion)
chain: B1 chain with N150E, N154D, G155A, Q156S, I157K
notes: bivalent; P329G+LALA
B29: 42.8.88 (Fc fusion)
chain: B1 chain with N150E, N154E, G155A, I157K, E158L
notes: bivalent; P329G+LALA
B30: 42.8.181 (Fc fusion)
chain: B1 chain with N150E, S153Y, N154E, I157K
notes: bivalent; P329G+LALA
B31: 6.5.11.5.42 (Fc fusion)
chain: B1 chain with N150Y, N154G, I157R
notes: P329G+LALA
B32: 42.8.63 (Fc fusion)
chain: B1 chain with N150E, N154D, G155D, I157K, N159S
notes: bivalent; P329G+LALA
B33: 42.8.118 (Fc fusion)
chain: B1 chain with N150E, S153Y, N154G, Q156S, I157K, E158L
notes: bivalent; P329G+LALA
B34: 42.8.157 (Fc fusion)
chain: B1 chain with N150E, S153Y, N154D, G155A, I157K
notes: bivalent; P329G+LALA
B35: 42.8.127 (Fc fusion)
chain: B1 chain with N150E, S153Y, N154G, G155A, Q156S, I157K
notes: bivalent; P329G+LALA
B36: 42.8.99 (Fc fusion)
chain: B1 chain with N150E, N154E, G155D, I157K, N159S
notes: bivalent; P329G+LALA
B37: 42.8.153 (Fc fusion)
chain: B1 chain with N150E, S153Y, N154D, Q156S, I157K, N159S
notes: bivalent; P329G+LALA
B38: 42.8.143 (Fc fusion)
chain: B1 chain with N150E, S153Y, N154G, G155D, Q156S, I157K, E158L, N159T
notes: bivalent; P329G+LALA
B39: 42.8.149 (Fc fusion)
chain: B1 chain with N150E, S153Y, N154D, I157K, E158L, N159T
notes: bivalent; P329G+LALA
B40: 42.8.162 (Fc fusion)
chain: B1 chain with N150E, S153Y, N154D, G155A, I157K, E158L, N159S
notes: bivalent; P329G+LALA
B41: 42.8.174 (Fc fusion)
chain: B1 chain with N150E, S153Y, N154D, G155D, I157K, E158L, N159S
notes: bivalent; P329G+LALA
B42: 42.8.71 (Fc fusion)
chain: B1 chain with N150E, N154D, G155D, Q156S, I157K, E158L, N159T
notes: bivalent; P329G+LALA
B43: 42.8.17 (Fc fusion)
chain: B1 chain with N150E, N154G, G155A, I157K, E158L, N159T
notes: bivalent; P329G+LALA
B44: 42.8.172 (Fc fusion)
chain: B1 chain with N150E, S153Y, N154D, G155D, I157K, E158L
notes: bivalent; P329G+LALA
B45: 42.8.168 (Fc fusion)
chain: B1 chain with N150E, S153Y, N154D, G155A, Q156S, I157K, E158L, N159S
notes: bivalent; P329G+LALA
B46: 42.8.110 (Fc fusion)
chain: B1 chain with N150E, S153Y, N154G, I157K, N159T
notes: bivalent; P329G+LALA
B47: 42.8.163 (Fc fusion)
chain: B1 chain with N150E, S153Y, N154D, G155A, Q156S, I157K
notes: bivalent; P329G+LALA
B48: 42.8.152 (Fc fusion)
chain: B1 chain with N150E, S153Y, N154D, Q156S, I157K, N159T
notes: bivalent; P329G+LALA
B49: 42.2.1.2 (Fc fusion)
chain: B1 chain with N150E, S153Y, N154D, G155D, Q156S, I157K, E158L, N159T
notes: bivalent; P329G+LALA
B50: 42.8.156 (Fc fusion)
chain: B1 chain with N150E, S153Y, N154D, Q156S, I157K, E158L, N159S
notes: bivalent; P329G+LALA
B51: 42.8.144 (Fc fusion)
chain: B1 chain with N150E, S153Y, N154G, G155D, Q156S, I157K, E158L, N159S
notes: bivalent; P329G+LALA

Experiments:
[1] = target: T1, circularly permuted human TfR apical …; test: SPR, supernatant, anti-Fab capture
Method: (§1) Clones were expressed in HEK293 cells. Supernatants were captured for SPR by GE Healthcare anti-human Fab capture kit and the affinity to human and cyno TfR apical domain was measured (Table 30). The clones in Table 30 were bivalent and each TfR-binding Fc polypeptide also contained P329G and LALA mutations.

[2] = target: T2, circularly permuted cyno TfR apical …; test: SPR, supernatant, anti-Fab capture
Method: as §1

Row | Binder | Kd [1] [µM] | Kd [2] [µM]
1 | B1 | 10 | –
2 | B2 | 0.22 | 2
3 | B3 | 1.14 | 13.3
4 | B4 | 0.85 | 6.1
5 | B5 | 4.9 | –
6 | B6 | 4.07 | 22.2
7 | B7 | 1.32 | 10.8
8 | B8 | 0.654 | 5.45
9 | B9 | 4.13 | 23.1
10 | B10 | 4.6 | –
11 | B11 | 1.18 | 12.6
12 | B12 | 0.502 | 6.59
13 | B13 | 0.603 | 6.72
14 | B14 | 2.29 | 14.4
15 | B15 | 7.81 | –
16 | B16 | 1.05 | 15.8
17 | B17 | 8.1 | –
18 | B18 | 0.855 | 5
19 | B19 | 5.69 | –
20 | B20 | 4.83 | 28.4
21 | B21 | 9.44 | 21.9
22 | B22 | 1.51 | 13.1
23 | B23 | 2.02 | 13.6
24 | B24 | 1.81 | 18.3
25 | B25 | 1.66 | –
26 | B26 | 1.61 | 34.3

Row | Binder | Kd [1] [µM] | Kd [2] [µM]
27 | B27 | 2.65 | 11.8
28 | B28 | 6.16 | –
29 | B29 | 9.16 | –
30 | B30 | 2.78 | 12.1
31 | B31 | 2 | –
32 | B32 | 4.19 | 4.94
33 | B33 | 0.867 | 4.29
34 | B34 | 2.1 | 15.5
35 | B35 | 0.633 | 3.04
36 | B36 | 6.38 | –
37 | B37 | 1.84 | 14.5
38 | B38 | 0.454 | 5.18
39 | B39 | 2.38 | 16
40 | B40 | 1.19 | 23.2
41 | B41 | 0.726 | 7.78
42 | B42 | 3 | 12.9
43 | B43 | 10.4 | –
44 | B44 | 0.795 | –
45 | B45 | 0.531 | 5.7
46 | B46 | 1.76 | 15.8
47 | B47 | 1.38 | 7.82
48 | B48 | 1.02 | 10.9
49 | B49 | 0.507 | 9.14
50 | B50 | 1.39 | 13.3
51 | B51 | 0.47 | 3.87
